One substance from publication PMC3439906 can be followed below.

The test has as its target M.EcoKI MTase (M2S1 methyltransferase core of the EcoKI Type I RM system) (E. coli K12) (UniProt P08957). As to the kind of experiment: ITC. (In general: Isothermal titration calorimetry measures the heat released or taken up as one component is titrated into another.)
Sequence of UniProt P08957 (P08957 whole entry, chain 1 of 2): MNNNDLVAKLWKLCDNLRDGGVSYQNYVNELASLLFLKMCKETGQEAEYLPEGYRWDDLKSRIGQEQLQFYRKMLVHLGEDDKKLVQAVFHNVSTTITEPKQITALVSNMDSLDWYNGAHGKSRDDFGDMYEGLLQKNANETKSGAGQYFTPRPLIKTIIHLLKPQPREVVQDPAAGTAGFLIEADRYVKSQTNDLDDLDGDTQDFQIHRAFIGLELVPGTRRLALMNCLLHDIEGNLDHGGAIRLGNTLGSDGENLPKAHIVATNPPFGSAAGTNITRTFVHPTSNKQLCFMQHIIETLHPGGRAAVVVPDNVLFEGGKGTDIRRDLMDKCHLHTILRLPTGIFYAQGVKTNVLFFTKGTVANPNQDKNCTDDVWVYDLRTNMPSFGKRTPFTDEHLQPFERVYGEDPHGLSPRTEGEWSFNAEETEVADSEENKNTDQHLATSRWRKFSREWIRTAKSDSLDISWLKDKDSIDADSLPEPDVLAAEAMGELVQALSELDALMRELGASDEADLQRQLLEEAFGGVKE
Sequence of UniProt P08957 (P05719 whole entry, chain 2 of 2, further chain): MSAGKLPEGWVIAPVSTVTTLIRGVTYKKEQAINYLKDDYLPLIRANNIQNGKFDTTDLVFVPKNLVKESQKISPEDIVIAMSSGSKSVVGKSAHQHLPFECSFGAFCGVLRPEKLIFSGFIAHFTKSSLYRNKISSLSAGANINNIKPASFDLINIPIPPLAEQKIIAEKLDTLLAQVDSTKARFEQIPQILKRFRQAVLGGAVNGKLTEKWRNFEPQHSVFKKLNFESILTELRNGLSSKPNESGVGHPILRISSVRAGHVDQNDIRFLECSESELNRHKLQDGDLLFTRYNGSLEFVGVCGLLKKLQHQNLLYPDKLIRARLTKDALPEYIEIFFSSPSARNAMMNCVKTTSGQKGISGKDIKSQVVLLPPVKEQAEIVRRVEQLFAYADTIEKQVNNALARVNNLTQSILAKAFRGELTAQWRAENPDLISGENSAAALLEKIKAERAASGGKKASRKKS

Ocr/POcr (natural protein) yielded a dH of -15.3 kcal/mol and a stoichiometry N (Ocr dimers per M.EcoKI) of 0.89.
